Assay results published in article PMC4448153.

The sequences below were run against T1, RamB-His (Corynebacterium glutamicum ATCC 13032?) (UniProt Q8NTD8) (assay: EMSA). Conditions: EMSA: 100 mM Tris/HCl pH 7.5, 20% glycerol, 100 mM KCl, 20 mM MgCl2, 1 mM EDTA, 30 min room temperature, DNA 5-61 nM; pull-down bead equilibration: 20 mM ….
T1 sequence: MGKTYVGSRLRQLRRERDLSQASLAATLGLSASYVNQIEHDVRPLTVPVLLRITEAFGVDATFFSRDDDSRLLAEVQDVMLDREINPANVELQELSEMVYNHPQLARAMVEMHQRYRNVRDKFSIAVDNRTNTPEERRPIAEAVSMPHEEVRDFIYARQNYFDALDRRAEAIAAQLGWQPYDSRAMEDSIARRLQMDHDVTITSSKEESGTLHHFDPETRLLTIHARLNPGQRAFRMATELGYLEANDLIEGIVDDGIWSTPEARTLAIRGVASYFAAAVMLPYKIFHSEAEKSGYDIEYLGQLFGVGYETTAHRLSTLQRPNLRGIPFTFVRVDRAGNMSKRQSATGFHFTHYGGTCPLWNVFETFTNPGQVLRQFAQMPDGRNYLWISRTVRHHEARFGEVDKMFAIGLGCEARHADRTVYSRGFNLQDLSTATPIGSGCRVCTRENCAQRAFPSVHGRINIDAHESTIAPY
“CCCGATGTGGGTAGTGGCAGAATTTGCCGAACGATAGCCCAGAGTTCATAAGTTGTTAACCAAATTAGCCTGAGTTAGTCATTTCAAGGTCTTAGGTTTTTAAGTCGTGAGCAATCCGGAGGGAAACCG (double strand) [RcFc]” was tested, and the binding was “binds”. For “CGTCTAGATGCGGACTGCTGGGAAGATGCACCTTCAGCAACGAGCTGACCGGTAACACCGGAAAGGCCCTCAATGGATGCAGCATCGGAAGAACCGGTGGAAGCTGCAGATGAGGAGGTGGAATCAGACTCATTGGAGTCGGAGCAAGCTACAAGAGCGAAGGAGCCTGCAGTAACTGCGCCCACAAGGGCGATGGAGCGCTTAAGAGTGAGGTTCACGGGGAAGCCTTTCCGGTTTAAGTGAAGACATCGTCTGAGCAGATCCTGTAGGCGGGCCTCGAGGGG (double strand) [R3F0]”, the binding was “no binding”. With “CGTCTAGATAAGACCTTGAAATGACTAACTCAGGCTAATTTGGTTAACAACTTATGAACTCTGGGCTATCGTTCGGCAAATTCTGCCACTACCCACATCTCACTCGTAACATTTGGAGACTCTAATCACAAAAATCGGCAATTTTCGACCCCTGCGGAACGAAAATCACCGATTCTTATTATTCTCACAGGTTTTTAGCAAGTCTCTTTTTTACTCGAGGGG (double strand) [RF4]” the binding was “binds more weakly”.
